Values of other authors in PMC6969543.

Biological target: Glu325 (UniProt position 325, TLHMFEVPFLL)
Test: IR

Substance: Lactose permease (LacY), form used in earlier work (quoted values) (Escherichia coli)
- pKa: 10.5 ± 0.1
